Target: human β-Klotho extracellular domain (aa 1–992) His6 (human) (UniProt Q86Z14)
Assay: BLI; Octet RED; biotinylated β-Klotho ECD His6 (10 μg/ml) loaded onto streptavidin biosensors; analyte at various concentrations in kinetics buffer, 5 min association, 10 min dissociation; globally fitted 1:1 binding model

UniProt Q86Z14, sequence (Q86Z14 1-992): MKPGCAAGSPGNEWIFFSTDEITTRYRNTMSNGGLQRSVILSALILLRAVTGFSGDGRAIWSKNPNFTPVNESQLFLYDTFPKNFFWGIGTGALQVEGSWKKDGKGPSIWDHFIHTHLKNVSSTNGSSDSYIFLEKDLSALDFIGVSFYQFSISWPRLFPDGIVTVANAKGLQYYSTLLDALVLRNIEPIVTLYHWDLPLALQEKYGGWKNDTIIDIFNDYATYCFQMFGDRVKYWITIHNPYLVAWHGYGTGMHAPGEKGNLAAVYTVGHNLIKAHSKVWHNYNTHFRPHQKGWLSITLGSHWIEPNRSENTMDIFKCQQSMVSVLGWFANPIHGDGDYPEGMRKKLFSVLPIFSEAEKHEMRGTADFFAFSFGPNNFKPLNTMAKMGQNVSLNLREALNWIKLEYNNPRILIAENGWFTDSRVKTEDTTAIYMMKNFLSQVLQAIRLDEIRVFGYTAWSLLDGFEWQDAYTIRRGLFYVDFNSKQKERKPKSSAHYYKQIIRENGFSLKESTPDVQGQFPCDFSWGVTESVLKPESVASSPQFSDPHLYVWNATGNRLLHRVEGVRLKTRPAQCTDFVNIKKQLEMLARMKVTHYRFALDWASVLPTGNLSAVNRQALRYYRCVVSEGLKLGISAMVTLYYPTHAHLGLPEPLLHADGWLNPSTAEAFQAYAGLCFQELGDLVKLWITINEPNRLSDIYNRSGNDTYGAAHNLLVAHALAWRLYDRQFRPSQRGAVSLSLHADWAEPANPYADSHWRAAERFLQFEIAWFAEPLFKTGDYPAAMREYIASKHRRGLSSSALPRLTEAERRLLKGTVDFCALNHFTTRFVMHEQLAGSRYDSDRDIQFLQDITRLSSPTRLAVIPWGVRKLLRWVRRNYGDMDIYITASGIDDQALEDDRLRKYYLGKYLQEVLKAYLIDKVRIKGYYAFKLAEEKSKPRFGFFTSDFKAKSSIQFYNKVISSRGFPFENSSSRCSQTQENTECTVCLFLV

Kd: 3.55 nM
Substance: fibroblast growth factor 21 (ligand)
